The text below walks through data of patent publication US20080268507.

What all share (assay): cleavage_in_vitro
The test system of series [1] is T1, Nt.CviPII (His+) (Chlorella virus NYs-1).
T1 sequence: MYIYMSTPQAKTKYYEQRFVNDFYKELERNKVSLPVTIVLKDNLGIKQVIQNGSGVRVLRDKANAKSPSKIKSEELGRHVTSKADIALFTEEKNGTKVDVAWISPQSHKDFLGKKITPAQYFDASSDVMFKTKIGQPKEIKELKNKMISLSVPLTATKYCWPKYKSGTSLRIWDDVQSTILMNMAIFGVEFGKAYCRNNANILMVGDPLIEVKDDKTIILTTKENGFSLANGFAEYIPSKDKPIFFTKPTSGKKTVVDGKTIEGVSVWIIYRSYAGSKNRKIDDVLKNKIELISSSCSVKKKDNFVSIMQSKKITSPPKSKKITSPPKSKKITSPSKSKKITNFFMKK
Conditions: NEBuffer 4 (10 mM Mg acetate), 37 C 1 h.

The test system of series [2] is NPN329 (Nt.CviPII C-terminal truncation) (Chlorella virus NYs-1). The settings on record: 37 C 1 h; same specificity as wild type.
Series [3] has as its system NPN297 (Nt.CviPII C-terminal truncation) (Chlorella virus NYs-1). The settings on record: 37 C 1 h; same specificity as wild type.

With pUC19 plasmid, the activity in series [1] was 9410 units/mg; in series [2], 1400 units/mg; in series [3], 2600 units/mg.
